From patent publication US20160321394A1 (ACADEMIA SINICA, published 2016)
Where no end group is shown, it is not given here.

B1: L-peptide (peptide)
peptide: RLLDTNRPLLPY
notes: synthetic 12-mer, lead peptide; also called positive control

target: full-length recombinant human GRP78 (glucose-regulated protein 78), N-His tagged (human) (UniProt P11021); experiment: Biacore X SPR, 50 µM peptide over immobilised N-His GRP78; RU/MW normalised to L-peptide
Sequence (P11021 19-654 limits assumed): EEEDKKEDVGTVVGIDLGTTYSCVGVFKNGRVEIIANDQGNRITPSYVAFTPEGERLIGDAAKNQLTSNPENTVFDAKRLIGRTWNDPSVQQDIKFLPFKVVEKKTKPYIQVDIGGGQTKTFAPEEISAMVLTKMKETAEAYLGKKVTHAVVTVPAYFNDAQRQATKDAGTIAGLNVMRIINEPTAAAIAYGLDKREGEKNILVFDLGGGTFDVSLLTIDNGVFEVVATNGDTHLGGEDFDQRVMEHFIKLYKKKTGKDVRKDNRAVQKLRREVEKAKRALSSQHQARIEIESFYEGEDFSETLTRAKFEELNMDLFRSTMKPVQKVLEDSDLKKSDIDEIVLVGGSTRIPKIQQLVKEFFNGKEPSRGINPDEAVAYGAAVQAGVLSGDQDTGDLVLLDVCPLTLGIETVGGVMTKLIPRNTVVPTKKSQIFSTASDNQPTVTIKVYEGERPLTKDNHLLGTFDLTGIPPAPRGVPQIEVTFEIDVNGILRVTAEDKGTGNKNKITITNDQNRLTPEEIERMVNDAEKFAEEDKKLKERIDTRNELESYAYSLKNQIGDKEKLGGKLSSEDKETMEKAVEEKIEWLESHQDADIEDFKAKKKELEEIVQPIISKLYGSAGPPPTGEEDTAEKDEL

| Binder | Binding index |
| --- | --- |
| RLLDTNRPYLWY [PB-2] | 3 |

target: T1, full-length recombinant human GRP78 (glucose-regulated protein 78), N-His tagged (human, UniProt P11021 19-654, limits assumed); experiment: as above
T1 construct: Immobilised on a Biacore NTA chip by Ni chelation plus amine coupling; also called His-tagged GRP78; human glucose-regulated protein 78; not shown: N-terminal His tag
Procedure: The chip NTA and HBS-P buffer were obtained from GE Healthcare. Sensor chip NTA was prepared by combining Ni-ion chelation and covalent immobilization of N-His tagged GRP78 via amine-coupling with nitrilotriacetic acid on chip NTA (FIG. 6). To immobilize GRP78 protein on sensor chip for peptide-binding assay using Biacore, the methods based on Ni-ion chelation and amine coupling reaction were combined. Sensor chip NTA was prepared by chelation followed by covalent immobilization of N-His-tagged GRP78 via amine-coupling at the nitrilotriacetic acid group on chip NTA. The sensor chip NTA, HBS-P buffer and amine coupling kits were all obtained from GE Healthcare. First, the activation of chip surface using EDC and NHS reagents for amine coupling were according to the standard procedure from manufacturer's instruction. Additionally, one-minute pulse of NiCl₂ solution (500 μM) was used to attract His-tagged GRP78 to the surface of sensor chip and formed covalent bond subsequently in the condition of HBS-P buffer (pH 7.4). The resulting differences of RU were about 5,000˜6,000 RU. After de-activation by ethanolamine and washed with EDTA (3 mM), the prepared sensor chip was then applied to Biacore X for binding assay. The HBS-P buffer containing 1 mM Gly was used as running buffer for binding assay. Solution of 20 mM sodium hydroxide dissolved in running buffer was used to regenerate the chip surface by one-minute pulse.
The sensor chip thus prepared was applied to Biacore X for determining the binding between the peptides and GRP78. The HBS-P buffer containing 1 mM Gly was used as a running buffer. A solution of 20 mM sodium hydroxide dissolved in the running buffer was used to regenerate chip surface by 1-minute pulses.

T1 sequence (P11021 19-654 limits assumed): as above

| Binder | Binding index |
| --- | --- |
| RLLDTNRPLLPY-NH2 [PB-3] | 1.15 |
| B1 | 1 |
| RLLDTNRPQLPY [PA-5] | 0.3 |
| RLLDTNRPNLPY [PA-4] | 0.31 |
| RLLDTNRPLLGY [P-11] | 0.77 |
| RLLDTNRPFLWY [PB-1] | 1.6 |
| RLLDTNRPLLLY [P-14] | 0.21 |
| RLLDTNRPWLPY [PA-1] | 0.35 |
| RLLDTNRPHLPY [PA-6] | 0.47 |
